This note sets out measurements from patent US20070014785A1.

For this assay, the target named is human CD20 (entire coding sequence, expressed on the cell surface after LTR-CD20-LTR retroviral transduction) (human) (UniProt P11836). The assay is described as follows: cell-based or functional assay.
Sequence of UniProt P11836 (P11836 whole entry): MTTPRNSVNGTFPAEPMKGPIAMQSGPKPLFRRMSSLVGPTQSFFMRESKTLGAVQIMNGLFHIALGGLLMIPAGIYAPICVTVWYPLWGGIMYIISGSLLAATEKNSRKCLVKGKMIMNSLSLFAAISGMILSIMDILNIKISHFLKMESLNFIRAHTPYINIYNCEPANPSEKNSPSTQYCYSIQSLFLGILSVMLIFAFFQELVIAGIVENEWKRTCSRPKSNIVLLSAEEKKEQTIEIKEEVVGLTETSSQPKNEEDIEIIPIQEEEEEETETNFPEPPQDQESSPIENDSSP

“Rituximab (Roche), humanised monoclonal antibody against CD20”: the % specific lysis, Rituximab alone (Donor 1, 30% CD3/CD20+ lymphocytes) amounted to 0%; the % specific lysis, Rituximab alone (Donor 2, 23% CD3/CD20+ lymphocytes) was 0%; the % specific lysis, Rituximab alone (Donor 3, 15% CD3/CD20+ lymphocytes) turned out to be 0%; the % specific lysis, Rituximab plus complement (Donor 1, 30% CD3/CD20+ lymphocytes) is 33%. Also, the % specific lysis, Rituximab plus complement (Donor 2, 23% CD3/CD20+ lymphocytes) is 35%; the % specific lysis, Rituximab plus complement (Donor 3, 15% CD3/CD20+ lymphocytes) was 18%; the death of the CD3/CD20+ cells after one hour exposure (complement-dependent cytotoxicity) was 90%.
